Assay results as given in article PMC9992269 (Molecular cell, 2023).

T1: Npl4 (wild type, purified without Ufd1) (UniProt P33755 1-580)
T1 sequence (looked up): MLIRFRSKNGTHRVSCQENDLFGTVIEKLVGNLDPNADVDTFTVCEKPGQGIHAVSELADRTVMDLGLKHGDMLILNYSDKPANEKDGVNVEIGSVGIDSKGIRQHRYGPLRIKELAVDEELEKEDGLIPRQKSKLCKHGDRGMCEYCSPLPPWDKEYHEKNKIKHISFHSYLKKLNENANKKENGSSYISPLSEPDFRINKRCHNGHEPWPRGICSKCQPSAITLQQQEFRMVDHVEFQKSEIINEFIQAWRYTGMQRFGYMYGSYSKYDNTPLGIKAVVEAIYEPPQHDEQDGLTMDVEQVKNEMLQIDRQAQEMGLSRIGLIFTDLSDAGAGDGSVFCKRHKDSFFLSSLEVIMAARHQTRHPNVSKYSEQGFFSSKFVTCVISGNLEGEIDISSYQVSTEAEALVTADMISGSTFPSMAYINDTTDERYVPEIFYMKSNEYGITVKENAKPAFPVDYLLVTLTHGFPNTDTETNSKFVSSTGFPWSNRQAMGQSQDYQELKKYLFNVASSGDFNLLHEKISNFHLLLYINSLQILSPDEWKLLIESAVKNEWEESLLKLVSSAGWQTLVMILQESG

T2: Ufd1^L55R/Npl4 (UniProt P53044 1-361; P33755 1-580, L55R)
T2 sequence (looked up) 1: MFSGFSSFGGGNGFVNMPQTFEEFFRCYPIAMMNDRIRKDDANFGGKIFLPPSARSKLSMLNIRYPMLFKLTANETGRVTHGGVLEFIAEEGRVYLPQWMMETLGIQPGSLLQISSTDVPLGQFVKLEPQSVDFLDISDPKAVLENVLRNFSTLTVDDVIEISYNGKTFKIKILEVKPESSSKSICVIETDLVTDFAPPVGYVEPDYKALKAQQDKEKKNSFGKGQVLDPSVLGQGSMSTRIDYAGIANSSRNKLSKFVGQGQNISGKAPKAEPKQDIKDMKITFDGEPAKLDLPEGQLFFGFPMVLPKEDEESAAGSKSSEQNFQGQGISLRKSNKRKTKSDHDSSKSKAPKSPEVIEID
T2 sequence (looked up) 2: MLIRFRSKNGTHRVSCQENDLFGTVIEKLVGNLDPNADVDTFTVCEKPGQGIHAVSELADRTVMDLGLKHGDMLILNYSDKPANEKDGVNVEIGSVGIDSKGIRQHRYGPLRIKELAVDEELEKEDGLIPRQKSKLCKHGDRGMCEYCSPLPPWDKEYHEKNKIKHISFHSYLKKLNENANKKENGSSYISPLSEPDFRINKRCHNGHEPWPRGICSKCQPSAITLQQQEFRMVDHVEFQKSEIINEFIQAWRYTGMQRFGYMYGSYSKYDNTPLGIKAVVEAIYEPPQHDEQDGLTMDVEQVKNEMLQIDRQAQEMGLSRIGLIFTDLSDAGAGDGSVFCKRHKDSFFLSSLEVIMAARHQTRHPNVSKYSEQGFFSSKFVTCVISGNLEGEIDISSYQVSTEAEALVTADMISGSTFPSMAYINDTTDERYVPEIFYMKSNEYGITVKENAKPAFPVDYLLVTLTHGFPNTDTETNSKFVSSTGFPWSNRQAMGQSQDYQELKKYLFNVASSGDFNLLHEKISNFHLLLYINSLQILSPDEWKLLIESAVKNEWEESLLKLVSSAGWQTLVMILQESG

T3: Ufd1/Npl4 heterodimer (wild type) (UniProt P53044 1-361; P33755 1-580)
T3 sequence (looked up) 1: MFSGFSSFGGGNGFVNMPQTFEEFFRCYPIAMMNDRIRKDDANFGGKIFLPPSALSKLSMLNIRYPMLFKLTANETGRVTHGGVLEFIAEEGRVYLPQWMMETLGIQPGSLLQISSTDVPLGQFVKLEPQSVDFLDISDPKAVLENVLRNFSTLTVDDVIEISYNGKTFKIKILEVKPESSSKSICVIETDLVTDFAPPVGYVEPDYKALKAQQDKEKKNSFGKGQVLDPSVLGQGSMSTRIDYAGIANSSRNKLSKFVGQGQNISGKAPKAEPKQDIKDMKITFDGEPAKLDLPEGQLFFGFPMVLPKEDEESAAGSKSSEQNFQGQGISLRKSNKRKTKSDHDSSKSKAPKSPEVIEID
T3 sequence (looked up) 2: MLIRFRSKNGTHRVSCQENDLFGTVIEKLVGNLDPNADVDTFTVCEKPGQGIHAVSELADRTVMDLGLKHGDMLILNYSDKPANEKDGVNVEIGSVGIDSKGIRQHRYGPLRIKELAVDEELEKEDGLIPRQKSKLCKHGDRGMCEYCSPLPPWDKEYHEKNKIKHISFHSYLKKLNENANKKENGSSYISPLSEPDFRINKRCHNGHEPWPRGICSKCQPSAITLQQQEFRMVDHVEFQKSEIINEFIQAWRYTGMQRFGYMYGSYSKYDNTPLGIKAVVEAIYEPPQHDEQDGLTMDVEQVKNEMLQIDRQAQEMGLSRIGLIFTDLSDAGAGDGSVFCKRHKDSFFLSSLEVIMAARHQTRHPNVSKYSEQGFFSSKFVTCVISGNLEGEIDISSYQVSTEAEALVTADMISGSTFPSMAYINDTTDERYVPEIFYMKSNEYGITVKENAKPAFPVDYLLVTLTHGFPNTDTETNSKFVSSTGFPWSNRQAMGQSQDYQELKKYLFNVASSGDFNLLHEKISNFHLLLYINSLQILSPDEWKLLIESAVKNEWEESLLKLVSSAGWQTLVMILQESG


Experiments:
[1] = molecular target: T1, Npl4 (wild type, purified without Ufd1); assay: SEC
Ufd1^L55R/Npl4 = molecular target: T2, Ufd1^L55R/Npl4; assay: ATPase activity titration
[2] = molecular target: T3, Ufd1/Npl4 heterodimer (wild type); assay: ATPase activity titration

| binding result [1] | Kd (Ufd1^L55R/Npl4) | Kd [2] | Binder |
| --- | --- | --- | --- |
| binds | – | – | Ufd1 (wild type, purified without Npl4) (natural protein, UniProt P53044 1-361, looked up) MFSGFSSFGGGNGFVNMPQTFEEFFRCYPIAMMNDRIRKDDANFGGKIFLPPSALSKLSMLNIRYPMLFKLTANETGRVTHGGVLEFIAEEGRVYLPQWMMETLGIQPGSLLQISSTDVPLGQFVKLEPQSVDFLDISDPKAVLENVLRNFSTLTVDDVIEISYNGKTFKIKILEVKPESSSKSICVIETDLVTDFAPPVGYVEPDYKALKAQQDKEKKNSFGKGQVLDPSVLGQGSMSTRIDYAGIANSSRNKLSKFVGQGQNISGKAPKAEPKQDIKDMKITFDGEPAKLDLPEGQLFFGFPMVLPKEDEESAAGSKSSEQNFQGQGISLRKSNKRKTKSDHDSSKSKAPKSPEVIEID |
| binds | – | – | Ufd1^L55R (purified without Npl4) (natural protein, UniProt P53044 1-361, looked up) MFSGFSSFGGGNGFVNMPQTFEEFFRCYPIAMMNDRIRKDDANFGGKIFLPPSARSKLSMLNIRYPMLFKLTANETGRVTHGGVLEFIAEEGRVYLPQWMMETLGIQPGSLLQISSTDVPLGQFVKLEPQSVDFLDISDPKAVLENVLRNFSTLTVDDVIEISYNGKTFKIKILEVKPESSSKSICVIETDLVTDFAPPVGYVEPDYKALKAQQDKEKKNSFGKGQVLDPSVLGQGSMSTRIDYAGIANSSRNKLSKFVGQGQNISGKAPKAEPKQDIKDMKITFDGEPAKLDLPEGQLFFGFPMVLPKEDEESAAGSKSSEQNFQGQGISLRKSNKRKTKSDHDSSKSKAPKSPEVIEID |
| – | 500 nM | 1000 nM | Cdc48 (enzyme, yeast, UniProt P25694 1-835, looked up) MGEEHKPLLDASGVDPREEDKTATAILRRKKKDNMLLVDDAINDDNSVIAINSNTMDKLELFRGDTVLVKGKKRKDTVLIVLIDDELEDGACRINRVVRNNLRIRLGDLVTIHPCPDIKYATRISVLPIADTIEGITGNLFDVFLKPYFVEAYRPVRKGDHFVVRGGMRQVEFKVVDVEPEEYAVVAQDTIIHWEGEPINREDEENNMNEVGYDDIGGCRKQMAQIREMVELPLRHPQLFKAIGIKPPRGVLMYGPPGTGKTLMARAVANETGAFFFLINGPEVMSKMAGESESNLRKAFEEAEKNAPAIIFIDEIDSIAPKRDKTNGEVERRVVSQLLTLMDGMKARSNVVVIAATNRPNSIDPALRRFGRFDREVDIGIPDATGRLEVLRIHTKNMKLADDVDLEALAAETHGYVGADIASLCSEAAMQQIREKMDLIDLDEDEIDAEVLDSLGVTMDNFRFALGNSNPSALRETVVESVNVTWDDVGGLDEIKEELKETVEYPVLHPDQYTKFGLSPSKGVLFYGPPGTGKTLLAKAVATEVSANFISVKGPELLSMWYGESESNIRDIFDKARAAAPTVVFLDELDSIAKARGGSLGDAGGASDRVVNQLLTEMDGMNAKKNVFVIGATNRPDQIDPAILRPGRLDQLIYVPLPDENARLSILNAQLRKTPLEPGLELTAIAKATQGFSGADLLYIVQRAAKYAIKDSIEAHRQHEAEKEVKVEGEDVEMTDEGAKAEQEPEVDPVPYITKEHFAEAMKTAKRSVSDAELRRYEAYSQQMKASRGQFSNFNFNDAPLGTTATDNANSNNSAPSGAGAAFGSNAEEDDDLYS |
